# Measured values reported in publication doi:10.1101/2025.02.14.638281 (bioRxiv, 2025).
# Several values for one entry are separate records, joined by “and”; a condition that tells them apart may be missing. Equal values may be shown once.
# Target: the molecule itself
# Experiment: SEC
protein,measurement,value
"Synechocystis sp. PCC 6803 fructose-1,6-bisphosphatase (FBPase; slr0952) (enzyme, UniProt P74324 1-347, looked up) MTVSEIHIPNSLLDRDCTTLSRHVLQQLNSFGADAQDLSAIMNRIALAGKLIARRLSRAGLMADVLGFTGETNVQGESVKKMDVFANDVFISVFKQSGLVCRLASEEMEKPYYIPENCPIGRYTLLYDPIDGSSNVDINLNVGSIFAIRQQEGDDLDGSASDLLANGDKQIAAGYILYGPSTILVYSLGSGVHSFILDPSLGEFILAQENIRIPNHGPIYSTNEGNFWQWDEALRDYTRYVHRHEGYTARYSGALVGDIHRILMQGGVFLYPGTEKNPDGKLRLLYETAPLAFLVEQAGGRASDGQKRLLDLIPSKLHQRTPAIIGSAEDVKLVESFISDHKQRQGN",stoichiometry N,12 and 4
